US20260015399A1 (Boehringer Ingelheim, published 2026)
*1 amine or outer side, *2 acyl side, *3 side chain or, on linkers, in order; H or OH if unused. Side-chain parts run from the residue outwards. The star is where a group is joined. C18 diacid = O=C(O)CCCCCCCCCCCCCCCCC(=O)*; γGlu = O=C(O)[C@H](CCC(=O)[*:2])N[*:1]; Isovaleryl = CC(C)CC(=O)*; Ahx = NCCCCCC(=O)O

T1: human NPY5 receptor (human, UniProt Q15761 1-445)
T1 sequence (looked up): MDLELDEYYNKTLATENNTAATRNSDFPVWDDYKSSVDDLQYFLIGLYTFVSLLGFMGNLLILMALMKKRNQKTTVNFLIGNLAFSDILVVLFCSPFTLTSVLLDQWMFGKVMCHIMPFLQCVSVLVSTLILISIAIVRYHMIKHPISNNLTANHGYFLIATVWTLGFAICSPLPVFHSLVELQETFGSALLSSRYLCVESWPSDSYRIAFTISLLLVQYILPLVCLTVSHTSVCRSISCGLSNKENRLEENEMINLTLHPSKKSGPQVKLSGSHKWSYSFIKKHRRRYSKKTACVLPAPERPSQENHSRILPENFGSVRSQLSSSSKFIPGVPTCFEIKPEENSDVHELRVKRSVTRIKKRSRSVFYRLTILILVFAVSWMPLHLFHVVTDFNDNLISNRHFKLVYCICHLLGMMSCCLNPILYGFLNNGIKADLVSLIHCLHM

T2: human NPY2 receptor (human, UniProt P49146 1-381)
T2 sequence (looked up): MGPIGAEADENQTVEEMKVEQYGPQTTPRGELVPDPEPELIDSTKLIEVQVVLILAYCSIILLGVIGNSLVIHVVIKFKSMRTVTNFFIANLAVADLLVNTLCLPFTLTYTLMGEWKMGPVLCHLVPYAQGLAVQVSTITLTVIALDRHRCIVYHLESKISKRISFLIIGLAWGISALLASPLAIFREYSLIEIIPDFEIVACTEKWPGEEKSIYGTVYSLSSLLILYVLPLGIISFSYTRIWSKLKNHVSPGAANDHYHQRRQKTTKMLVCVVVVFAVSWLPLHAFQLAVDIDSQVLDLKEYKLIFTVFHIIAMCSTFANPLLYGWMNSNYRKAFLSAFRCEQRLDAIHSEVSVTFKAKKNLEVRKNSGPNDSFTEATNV

B1: Compound 12 (peptide)
peptide: Isovaleryl-APEK([Ahx-γGlu-C18 diacid])PEEDASPEELQQYYVSLRHYYHWLTRQRY-NH2
SMILES: CC(C)CC(=O)N[C@@H](C)C(=O)N1CCC[C@H]1C(=O)N[C@@H](CCC(=O)O)C(=O)N[C@@H](CCCCNC(=O)CCCCCNC(=O)CC[C@H](NC(=O)CCCCCCCCCCCCCCCCC(=O)O)C(=O)O)C(=O)N1CCC[C@H]1C(=O)N[C@@H](CCC(=O)O)C(=O)N[C@@H](CCC(=O)O)C(=O)N[C@@H](CC(=O)O)C(=O)N[C@@H](C)C(=O)N[C@@H](CO)C(=O)N1CCC[C@H]1C(=O)N[C@@H](CCC(=O)O)C(=O)N[C@@H](CCC(=O)O)C(=O)N[C@@H](CC(C)C)C(=O)N[C@@H](CCC(N)=O)C(=O)N[C@@H](CCC(N)=O)C(=O)N[C@@H](Cc1ccc(O)cc1)C(=O)N[C@@H](Cc1ccc(O)cc1)C(=O)N[C@H](C(=O)N[C@@H](CO)C(=O)N[C@@H](CC(C)C)C(=O)N[C@@H](CCCNC(=N)N)C(=O)N[C@@H](Cc1c[nH]cn1)C(=O)N[C@@H](Cc1ccc(O)cc1)C(=O)N[C@@H](Cc1ccc(O)cc1)C(=O)N[C@@H](Cc1c[nH]cn1)C(=O)N[C@@H](Cc1c[nH]c2ccccc12)C(=O)N[C@@H](CC(C)C)C(=O)N[C@H](C(=O)N[C@@H](CCCNC(=N)N)C(=O)N[C@@H](CCC(N)=O)C(=O)N[C@@H](CCCNC(=N)N)C(=O)N[C@@H](Cc1ccc(O)cc1)C(N)=O)[C@@H](C)O)C(C)C
B2: Compound 14 (peptide)
peptide: Isovaleryl-APEK([Ahx-γGlu-C18 diacid])PPEDASPEELQRYYVSLRHYYNWLTRQRY-NH2
SMILES: CC(C)CC(=O)N[C@@H](C)C(=O)N1CCC[C@H]1C(=O)N[C@@H](CCC(=O)O)C(=O)N[C@@H](CCCCNC(=O)CCCCCNC(=O)CC[C@H](NC(=O)CCCCCCCCCCCCCCCCC(=O)O)C(=O)O)C(=O)N1CCC[C@H]1C(=O)N1CCC[C@H]1C(=O)N[C@@H](CCC(=O)O)C(=O)N[C@@H](CC(=O)O)C(=O)N[C@@H](C)C(=O)N[C@@H](CO)C(=O)N1CCC[C@H]1C(=O)N[C@@H](CCC(=O)O)C(=O)N[C@@H](CCC(=O)O)C(=O)N[C@@H](CC(C)C)C(=O)N[C@@H](CCC(N)=O)C(=O)N[C@@H](CCCNC(=N)N)C(=O)N[C@@H](Cc1ccc(O)cc1)C(=O)N[C@@H](Cc1ccc(O)cc1)C(=O)N[C@H](C(=O)N[C@@H](CO)C(=O)N[C@@H](CC(C)C)C(=O)N[C@@H](CCCNC(=N)N)C(=O)N[C@@H](Cc1c[nH]cn1)C(=O)N[C@@H](Cc1ccc(O)cc1)C(=O)N[C@@H](Cc1ccc(O)cc1)C(=O)N[C@@H](CC(N)=O)C(=O)N[C@@H](Cc1c[nH]c2ccccc12)C(=O)N[C@@H](CC(C)C)C(=O)N[C@H](C(=O)N[C@@H](CCCNC(=N)N)C(=O)N[C@@H](CCC(N)=O)C(=O)N[C@@H](CCCNC(=N)N)C(=O)N[C@@H](Cc1ccc(O)cc1)C(N)=O)[C@@H](C)O)C(C)C
B3: Compound 15 (peptide)
peptide: Isovaleryl-APEK([Ahx-γGlu-C18 diacid])PEEDASPEEIQQYYVSLRHYYNWLTRQRY-NH2
SMILES: CC[C@H](C)[C@H](NC(=O)[C@H](CCC(=O)O)NC(=O)[C@H](CCC(=O)O)NC(=O)[C@@H]1CCCN1C(=O)[C@H](CO)NC(=O)[C@H](C)NC(=O)[C@H](CC(=O)O)NC(=O)[C@H](CCC(=O)O)NC(=O)[C@H](CCC(=O)O)NC(=O)[C@@H]1CCCN1C(=O)[C@H](CCCCNC(=O)CCCCCNC(=O)CC[C@H](NC(=O)CCCCCCCCCCCCCCCCC(=O)O)C(=O)O)NC(=O)[C@H](CCC(=O)O)NC(=O)[C@@H]1CCCN1C(=O)[C@H](C)NC(=O)CC(C)C)C(=O)N[C@@H](CCC(N)=O)C(=O)N[C@@H](CCC(N)=O)C(=O)N[C@@H](Cc1ccc(O)cc1)C(=O)N[C@@H](Cc1ccc(O)cc1)C(=O)N[C@H](C(=O)N[C@@H](CO)C(=O)N[C@@H](CC(C)C)C(=O)N[C@@H](CCCNC(=N)N)C(=O)N[C@@H](Cc1c[nH]cn1)C(=O)N[C@@H](Cc1ccc(O)cc1)C(=O)N[C@@H](Cc1ccc(O)cc1)C(=O)N[C@@H](CC(N)=O)C(=O)N[C@@H](Cc1c[nH]c2ccccc12)C(=O)N[C@@H](CC(C)C)C(=O)N[C@H](C(=O)N[C@@H](CCCNC(=N)N)C(=O)N[C@@H](CCC(N)=O)C(=O)N[C@@H](CCCNC(=N)N)C(=O)N[C@@H](Cc1ccc(O)cc1)C(N)=O)[C@@H](C)O)C(C)C
B4: Compound 174 (peptide)
peptide: Isovaleryl-APEK([Ahx-γGlu-C18 diacid])PGADASPEKLQRYYVSLRHYYHKLTRQRY-NH2
SMILES: CC(C)CC(=O)N[C@@H](C)C(=O)N1CCC[C@H]1C(=O)N[C@@H](CCC(=O)O)C(=O)N[C@@H](CCCCNC(=O)CCCCCNC(=O)CC[C@H](NC(=O)CCCCCCCCCCCCCCCCC(=O)O)C(=O)O)C(=O)N1CCC[C@H]1C(=O)NCC(=O)N[C@@H](C)C(=O)N[C@@H](CC(=O)O)C(=O)N[C@@H](C)C(=O)N[C@@H](CO)C(=O)N1CCC[C@H]1C(=O)N[C@@H](CCC(=O)O)C(=O)N[C@@H](CCCCN)C(=O)N[C@@H](CC(C)C)C(=O)N[C@@H](CCC(N)=O)C(=O)N[C@@H](CCCNC(=N)N)C(=O)N[C@@H](Cc1ccc(O)cc1)C(=O)N[C@@H](Cc1ccc(O)cc1)C(=O)N[C@H](C(=O)N[C@@H](CO)C(=O)N[C@@H](CC(C)C)C(=O)N[C@@H](CCCNC(=N)N)C(=O)N[C@@H](Cc1c[nH]cn1)C(=O)N[C@@H](Cc1ccc(O)cc1)C(=O)N[C@@H](Cc1ccc(O)cc1)C(=O)N[C@@H](Cc1c[nH]cn1)C(=O)N[C@@H](CCCCN)C(=O)N[C@@H](CC(C)C)C(=O)N[C@H](C(=O)N[C@@H](CCCNC(=N)N)C(=O)N[C@@H](CCC(N)=O)C(=O)N[C@@H](CCCNC(=N)N)C(=O)N[C@@H](Cc1ccc(O)cc1)C(N)=O)[C@@H](C)O)C(C)C
B5: Compound 199 (peptide)
peptide: Isovaleryl-APAK([Ahx-γGlu-C18 diacid])PEEEASPEELQRYYVSLRHYYNWLTRQRY-NH2
SMILES: CC(C)CC(=O)N[C@@H](C)C(=O)N1CCC[C@H]1C(=O)N[C@@H](C)C(=O)N[C@@H](CCCCNC(=O)CCCCCNC(=O)CC[C@H](NC(=O)CCCCCCCCCCCCCCCCC(=O)O)C(=O)O)C(=O)N1CCC[C@H]1C(=O)N[C@@H](CCC(=O)O)C(=O)N[C@@H](CCC(=O)O)C(=O)N[C@@H](CCC(=O)O)C(=O)N[C@@H](C)C(=O)N[C@@H](CO)C(=O)N1CCC[C@H]1C(=O)N[C@@H](CCC(=O)O)C(=O)N[C@@H](CCC(=O)O)C(=O)N[C@@H](CC(C)C)C(=O)N[C@@H](CCC(N)=O)C(=O)N[C@@H](CCCNC(=N)N)C(=O)N[C@@H](Cc1ccc(O)cc1)C(=O)N[C@@H](Cc1ccc(O)cc1)C(=O)N[C@H](C(=O)N[C@@H](CO)C(=O)N[C@@H](CC(C)C)C(=O)N[C@@H](CCCNC(=N)N)C(=O)N[C@@H](Cc1c[nH]cn1)C(=O)N[C@@H](Cc1ccc(O)cc1)C(=O)N[C@@H](Cc1ccc(O)cc1)C(=O)N[C@@H](CC(N)=O)C(=O)N[C@@H](Cc1c[nH]c2ccccc12)C(=O)N[C@@H](CC(C)C)C(=O)N[C@H](C(=O)N[C@@H](CCCNC(=N)N)C(=O)N[C@@H](CCC(N)=O)C(=O)N[C@@H](CCCNC(=N)N)C(=O)N[C@@H](Cc1ccc(O)cc1)C(N)=O)[C@@H](C)O)C(C)C
B6: Compound 198 (peptide)
peptide: Isovaleryl-APAK([Ahx-γGlu-C18 diacid])PEADAEPEEIQRYYVSLRHYYNWLTRQRY-NH2
SMILES: CC[C@H](C)[C@H](NC(=O)[C@H](CCC(=O)O)NC(=O)[C@H](CCC(=O)O)NC(=O)[C@@H]1CCCN1C(=O)[C@H](CCC(=O)O)NC(=O)[C@H](C)NC(=O)[C@H](CC(=O)O)NC(=O)[C@H](C)NC(=O)[C@H](CCC(=O)O)NC(=O)[C@@H]1CCCN1C(=O)[C@H](CCCCNC(=O)CCCCCNC(=O)CC[C@H](NC(=O)CCCCCCCCCCCCCCCCC(=O)O)C(=O)O)NC(=O)[C@H](C)NC(=O)[C@@H]1CCCN1C(=O)[C@H](C)NC(=O)CC(C)C)C(=O)N[C@@H](CCC(N)=O)C(=O)N[C@@H](CCCNC(=N)N)C(=O)N[C@@H](Cc1ccc(O)cc1)C(=O)N[C@@H](Cc1ccc(O)cc1)C(=O)N[C@H](C(=O)N[C@@H](CO)C(=O)N[C@@H](CC(C)C)C(=O)N[C@@H](CCCNC(=N)N)C(=O)N[C@@H](Cc1c[nH]cn1)C(=O)N[C@@H](Cc1ccc(O)cc1)C(=O)N[C@@H](Cc1ccc(O)cc1)C(=O)N[C@@H](CC(N)=O)C(=O)N[C@@H](Cc1c[nH]c2ccccc12)C(=O)N[C@@H](CC(C)C)C(=O)N[C@H](C(=O)N[C@@H](CCCNC(=N)N)C(=O)N[C@@H](CCC(N)=O)C(=O)N[C@@H](CCCNC(=N)N)C(=O)N[C@@H](Cc1ccc(O)cc1)C(N)=O)[C@@H](C)O)C(C)C

Molecular target: T1, human NPY5 receptor
Assay: cell-based or functional assay

Row | EC50, HTRF cAMP Gi assay | Binder
1 | > 5000 nM | B1
2 | > 5000 nM | B2
3 | > 5000 nM | Isovaleryl-APEK([Ahx-γGlu-C18 diacid])PEADASPEEIQRYYVSLRHYYNWLTRQRY-NH2 [Compound 140]
4 | > 5000 nM | B3

Molecular target: T2, human NPY2 receptor
Assay: cell-based or functional assay

Row | EC50, HTRF cAMP Gi assay | Binder
5 | 0.25 nM | B1
6 | 0.086 nM | B2
7 | 0.14 nM | B3

Molecular target: T2, human NPY2 receptor
Assay: RLB: displacement of 125I-PYY(1-36) from hNPY2R membranes

Row | Ki | Binder
8 | 0.21 nM | B4
9 | 4.16 nM | B1
10 | 1.28 nM | B2
11 | 1.41 nM | Isovaleryl-APEK([Ahx-γGlu-C18 diacid])PEADASPEEIQRYYVSLRHYYNWLTRQRY-NH2 [Compound 140]
12 | 2.87 nM | B5
13 | 3.98 nM | B3
14 | 1.38 nM | B6
